B1: recombinant human MAO-B (Homo sapiens) (protein)
chain: MSNKCDVVVVGGGISGMAAAKLLHDSGLNVVVLEARDRVGGRTYTLRNQKVKYVDLGGSYVGPTQNRILRLAKELGLETYKVNEVERLIHHVKGKSYPFRGPFPPVWNPITYLDHNNFWRTMDDMGREIPSDAPWKAPLAEEWDNMTMKELLDKLCWTESAKQLATLFVNLCVTAETHEVSALWFLWYVKQCGGTTRIISTTNGGQERKFVGGSGQVSERIMDLLGDRVKLERPVIYIDQTRENVLVETLNHEMYEAKYVISAIPPTLGMKIHFNPPLPMMRNQMITRVPLGSVIKCIVYYKEPFWRKKDYCGTMIIDGEEAPVAYTLDDTKPEGNYAAIMGFILAHKARKLARLTKEERLKKLCELYAKVLGSLEALEPVHYEEKNWCEEQYSGGCYTTYFPPGILTQYGRVLRQPVDRIYFAGTETATHWSGYMEGAVEAGERAAREILHAMGKIPEDEIWQSEPESVDVPAQPITTTFLERHLPSVPGLLRLIGLTTIFSATALGFLAHKRGLLVRV
notes: purchased Sigma-Aldrich; host or cells: insect cells (microsomes)
B2: recombinant human MAO-A (Homo sapiens) (protein)
chain: MENQEKASIAGHMFDVVVIGGGISGLSAAKLLTEYGVSVLVLEARDRVGGRTYTIRNEHVDYVDVGGAYVGPTQNRILRLSKELGIETYKVNVSERLVQYVKGKTYPFRGAFPPVWNPIAYLDYNNLWRTIDNMGKEIPTDAPWEAQHADKWDKMTMKELIDKICWTKTARRFAYLFVNINVTSEPHEVSALWFLWYVKQCGGTTRIFSVTNGGQERKFVGGSGQVSERIMDLLGDQVKLNHPVTHVDQSSDNIIIETLNHEHYECKYVINAIPPTLTAKIHFRPELPAERNQLIQRLPMGAVIKCMMYYKEAFWKKKDYCGCMIIEDEDAPISITLDDTKPDGSLPAIMGFILARKADRLAKLHKEIRKKKICELYAKVLGSQEALHPVHYEEKNWCEEQYSGGCYTAYFPPGIMTQYGRVIRQPVGRIFFAGTETATKWSGYMEGAVEAGERAAREVLNGLGKVTEKDIWVQEPESKDVPAVEITHTFWERNLPSVSGLLKIIGFSTSVTALGFVLYKYKLLPRS
notes: as for B1

How the values were obtained:
[1] = substrate: NCCC(=O)c1ccccc1N; assay: Lineweaver–Burk plots / mode of MAO-B inhibition and Ki; assay type: biochemical, human; details: other: global (shared) fitting of the kinetic data; pH 7.4; 37.0 °C
Description: (§1) These two compounds represent potent MAO inhibitors among the study compounds. […] Each line of the Lineweaver–Burk plots was constructed with the kynuramine concentration ranging from 15 to 250 μM.
(§2) The insets are replots of the slopes of the Lineweaver–Burk plots versus inhibitor concentration. The Ki value equals the negative of the x-axis intercept when y = 0
(§3) IC50 values for the inhibition of MAO were measured as described previously. Microsomes from insect cells containing recombinant human MAO-A and MAO-B (5 mg protein/mL) served as enzyme sources (Sigma-Aldrich) while kynuramine was used as non-specific MAO substrate. The enzyme reactions (200 µL reactions prepared in 96-well microtiter plates) contained phosphate buffer (100 mM, pH 7.4), 50 µM kynuramine and the test inhibitors at concentrations of 0.003–100 µM. Stock solutions of the test inhibitors were dissolved in DMSO and added to the enzyme reactions to give a final DMSO concentration of 4% (v/v). […] The concentration of 4-hydroxyquinoline, the product of kynuramine oxidation by MAO, was measured by fluorescence spectrophotometry (λex = 310 nm; λem = 400 nm). […] IC50 values were estimated in triplicate determinations from these plots and are expressed as mean ± standard deviation (SD). […]

[2] = substrate: NCCC(=O)c1ccccc1N; assay: Lineweaver–Burk plots / mode of MAO-A inhibition and Ki; assay type: biochemical, human; details: other: global (shared) fitting of the kinetic data; pH 7.4; 37.0 °C
Description: as §1, §2, §3

Row | Protein | Km [1] | Vmax [1] | Km [2] | Vmax [2]
1 | B1 | 32.4 ± 3.73 µM | 8.39 ± 0.28 nmol/min.mg protein | – | –
2 | B2 | – | – | 49.8 ± 3.07 µM | 34.0 ± 0.80 nmol/min.mg protein

Reference: publication PMC11269473, “Monoamine oxidase inhibition properties of 2,1-benzisoxazole derivatives” (Molecular Diversity, 2023)
